According to US20060160743A1 (SANFORD BURNHAM MEDICAL RESEARCH INSTITUTE, published 2006):
Blank lines part the entries; values can stand above or below the binder they belong to. Where no end group is shown, it is not given here.

Key:
[1] = target: T1, murine cysteine-rich protein 2 / heart LIM-protein (HLP/CRIP2), full length (murine, UniProt Q9DCT8 1-208); assay: competition: free peptide against CRPPR phage on HLP/CRIP2-transfected 293T cells
T1 construct: also called ESP1
T1 sequence: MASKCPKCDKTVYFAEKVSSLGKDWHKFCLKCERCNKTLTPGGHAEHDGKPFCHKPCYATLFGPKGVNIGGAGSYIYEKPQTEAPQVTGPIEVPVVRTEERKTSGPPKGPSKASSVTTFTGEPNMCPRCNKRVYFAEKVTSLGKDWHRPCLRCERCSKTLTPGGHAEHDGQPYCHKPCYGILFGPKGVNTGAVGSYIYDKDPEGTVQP
Description: (§1) Receptor transfections and phage binding assays were performed as follows. 293T cells were transfected with pMH6-derived plasmids (Roche Diagnostics; Indianapolis, Ind.) encoding HLP/CRIP2, Sigirr/TIR8, MpcII-3-related protein and bc10 using the Fugene transfection reagent (Roche Diagnostics). Briefly, 10 μg of plasmid was mixed with 700 μl of serum-free DMEM and 30 μl of Fugene transfection reagent and incubated for 15 minutes at room temperature before the mixture was added to cells. After forty-eight hours, cells were detached from culture dishes using EDTA and washed once with PBS. Phage displaying CRPPR (SEQ ID NO: 1), CKRAVR (SEQ ID NO: 7), […] (SEQ ID NO: 11) or […] (SEQ ID NO: 12) and nonrecombinant control phage (1×10⁹ p.f.u) were incubated with transfected cells for two hours at 4° C. Unbound phage were removed by five washes with 1% BSA in PBS. Bound phage were rescued by addition of bacteria; binding efficiencies were determined by plaque assay as described above.
(§2) Peptides for competition assays were synthesized at The Burnham Institute peptide facility using Fmoc chemistry in a solid-phase synthesizer prior to purification by HPLC and confirmation of their identity by mass spectrometry. […] After five washes with 1% PBS, bound phage were rescued and quantitated by plaque assay.

[2] = target: T2, murine bladder cancer-associated protein homolog (bc10), full length (murine, UniProt P62951 1-87); assay: competition: free peptide against … phage on bc10-transfected 293T cells
T2 construct: Expressed from full-length cDNA in a pMH6-derived plasmid in 293T cells
T2 sequence: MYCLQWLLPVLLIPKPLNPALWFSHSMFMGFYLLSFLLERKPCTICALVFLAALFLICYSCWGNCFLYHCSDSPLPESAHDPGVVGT
Description: as §1, §2

[3] = target: T3, receptor clone 36 (entire coding sequence of unnamed RIKEN Fantom protein product putatively similar to … (murine, UniProt Q9CZB0 1-169)); assay: bacterial two-hybrid (BacterioMatch), peptide bait against heart cDNA target clone
T3 construct: also called MpcII-3-related protein; not shown: fusion partner encoded by the target vector of the mouse heart cDNA library (BacterioMatch two-hybrid); not described
T3 sequence: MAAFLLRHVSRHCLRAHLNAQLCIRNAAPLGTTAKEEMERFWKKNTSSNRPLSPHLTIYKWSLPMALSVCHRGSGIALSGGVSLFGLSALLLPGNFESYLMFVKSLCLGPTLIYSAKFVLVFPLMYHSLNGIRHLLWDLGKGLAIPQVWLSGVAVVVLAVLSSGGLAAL
Description: (§3) PCR products were digested with EcoRI and XhoI, and subcloned into the bait pBT plasmid (Stratagene; La Jolla, Calif.) to generate a recombinant library of baits designated “pBT-hp.” pBT-hp plasmids were transformed into XL1-Blue MRF' Kan competent cells, and 2 μl or 5 μl of cells plated on 100 mm LB-chloramphenicol plates to determine the total number of primary transformants. The remaining transformants were pooled and plated on 150 mm LB-chloramphenicol plates. […] The plates were then scraped, and bacteria harvested. After plating 2 μl and 5 μl of the harvested library in order to determine the size of the amplified library, the pool of pBT-hp plasmids was purified from the pooled bacteria using a commercially available maxiprep DNA column. Purified DNA was used to transform BacterioMatch® Two-Hybrid System reporter strain competent cells according to the manufacturer's instructions (Stratagene; La Jolla, Calif.).
(§4) Bacterial two-hybridization experiments were performed with the BacterioMatch® Two-Hybrid System (Stratagene) according to the manufacturer's instructions. Briefly, pBT-hp and heart cDNA library plasmids were co-transformed using 50 ng each plasmid. Aliquots (100 μl) of co-transformants were plated on selective LB plates (500 μg/ml carbenicillin) and incubated at 37° C. for 20 hours before scoring the plates for growth. […]

[4] = target: T4, receptor clone 5 (carboxy-terminal 92 amino acids, residues 117 to 208, of heart LIM-protein / cysteine-rich … (murine, UniProt P36201 117-208 (rat entry))); assay: as above
T4 construct: Target clone of the bacterial two-hybrid screen; also called HLP clone; HLP/CRIP2 fragment; not shown: fusion partner encoded by the target vector of the mouse heart cDNA library (BacterioMatch two-hybrid); not described
T4 sequence: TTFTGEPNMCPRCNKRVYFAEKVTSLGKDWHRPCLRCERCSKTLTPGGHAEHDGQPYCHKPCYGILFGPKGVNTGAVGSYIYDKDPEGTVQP
Description: as §3, §4

[5] = target: T5, murine single Ig IL-1 receptor related protein (Sigirr/TIR8), full length (murine, UniProt Q9JLZ8 1-409); assay: competition: free peptide against CKRAVR phage on Sigirr/TIR8-transfected 293T cells
T5 construct: Expressed from full-length cDNA in a pMH6-derived plasmid in 293T cells
T5 sequence: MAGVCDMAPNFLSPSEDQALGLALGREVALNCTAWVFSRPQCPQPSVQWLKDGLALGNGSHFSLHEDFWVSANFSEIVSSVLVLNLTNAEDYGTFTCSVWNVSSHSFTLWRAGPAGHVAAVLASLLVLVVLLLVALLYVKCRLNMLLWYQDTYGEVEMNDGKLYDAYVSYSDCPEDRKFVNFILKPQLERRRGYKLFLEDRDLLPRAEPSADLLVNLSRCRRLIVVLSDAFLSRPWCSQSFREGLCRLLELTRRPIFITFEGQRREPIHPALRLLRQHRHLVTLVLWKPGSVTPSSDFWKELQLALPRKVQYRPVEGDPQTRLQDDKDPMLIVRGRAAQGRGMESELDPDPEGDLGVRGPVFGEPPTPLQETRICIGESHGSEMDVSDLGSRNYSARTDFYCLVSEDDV
Description: as §1, §2

binding result [1]: binds
Binder: CRPPR (also called CRPPR peptide) [free synthetic peptide CRPPR (SEQ ID NO: 1)]

binding result [2]: binds
Binder: CPKTRRVPC (also called cognate peptide) [free synthetic peptide CPKTRRVPC (SEQ ID NO: 12)]

binding result [3]: binds
B1: CRSTRANPC (SEQ ID NO: 11), peptide insert in bait plasmid pBT-hp (peptide)
chain: CRSTRANPC
modifications: cysteine pairing not given here; also: part of pBT bait fusion protein, position of partner not given here
notes: not shown: fusion partner encoded by bait plasmid pBT (BacterioMatch two-hybrid); not described, position relative to the peptide n

binding result [4]: binds
B2: CRPPR (SEQ ID NO: 1), peptide insert in bait plasmid pBT-hp (peptide)
chain: CRPPR
notes: Hybrid bait protein of the bacterial two-hybrid screen; not shown: fusion partner encoded by bait plasmid pBT (BacterioMatch two-hybrid); not described, position relative to the peptide n

binding result [5]: binds
B3: free synthetic peptide CKRAVR (SEQ ID NO: 7) (peptide)
peptide: CKRAVR
notes: also called free peptide CKRAVR; cognate peptide
